# According to the Immune Epitope Database (IEDB):
# Experiments:
# HLA-B*27:05 = experiment: IEDB peptide-MHC binding, purified MHC/direct/fluorescence; filed as Kd, often an IC50 or EC50 that approximates it; ≥ and ≤ were set here for values at or beyond the usual limits of such assays
# HLA-A*69:01 = experiment: as above
# HLA-A*01:01 = experiment: as above
# HLA-A*24:03 = experiment: as above
# HLA-A*02:01 = experiment: as above
# HLA-B*58:01 = experiment: as above
# HLA-A*03:01 = experiment: as above
# HLA-A*31:01 = experiment: as above
# HLA-B*44:02 = experiment: as above
# HLA-B*08:01 [1] = experiment: as above
# HLA-B*15:01 [2] = experiment: as above
# HLA-A*26:01 = experiment: as above
# HLA-B*07:02 [3] = experiment: as above
# HLA-B*40:01 = experiment: as above
# HLA-A*11:01 = experiment: as above
# HLA-B*08:01 [4] = experiment: IEDB peptide-MHC binding, purified MHC/competitive/radioactivity; filed as Kd, often an IC50 or EC50 that approximates it; ≥ and ≤ were set here for values at or beyond the usual limits of such assays
# HLA-B*15:01 [5] = experiment: as above
# HLA-B*07:02 [6] = experiment: as above
# HLA-B*35:01 = experiment: as above
# HLA-B*53:01 = experiment: as above
# HLA-A*32:01 = experiment: as above
# HLA-A*30:01 = experiment: as above; conditions: source organism: Vaccinia virus WR
# HLA-B*15:03 = experiment: as above; conditions: source organism: Vaccinia virus WR
# HLA-A*02:03 = experiment: as above; conditions: source organism: Dengue virus 2 Jamaica/1409/1983
# HLA-A*30:02 = experiment: as above; conditions: source organism: Dengue virus 4 Philippines/H241/1956
# HLA-A*23:01 = experiment: as above; conditions: source organism: Dengue virus 1 Brazil/97-11/1997
# HLA-B*51:01 = experiment: as above; conditions: source organism: Dengue virus 3 Martinique/1243/1999
# [7] = source organism: Vibrio parahaemolyticus
# [8] = source organism: Vibrio vulnificus
# [9] = source organism: Dengue virus 4 Philippines/H241/1956
# [10] = source organism: Dengue virus 1 Brazil/97-11/1997
# [11] = source organism: Vaccinia virus WR
# [12] = source organism: Dengue virus 3 Martinique/1243/1999
# [13] = source organism: Giardia lamblia ATCC 50803
# [14] = source organism: Neisseria gonorrhoeae
sequence,measurement,setting,value
ILLRKGHVF,Kd,HLA-B*27:05; [7],≥ 20000 nM
same,Kd,HLA-A*69:01; [7],≥ 20000 nM
same,Kd,HLA-A*01:01; [7],≥ 20000 nM
same,Kd,HLA-A*24:03; [8],4280 nM
same,Kd,HLA-A*02:01; [7],≥ 20000 nM
same,Kd,HLA-B*58:01; [7],≥ 20000 nM
same,Kd,HLA-A*03:01; [7],≥ 20000 nM
same,Kd,HLA-A*31:01; [7],≥ 20000 nM
same,Kd,HLA-B*44:02; [7],≥ 20000 nM
same,Kd,HLA-B*08:01 [1]; [8],107 nM
same,Kd,HLA-B*15:01 [2]; [8],115 nM
same,Kd,HLA-A*26:01; [7],≥ 20000 nM
same,Kd,HLA-B*07:02 [3]; [8],10000 nM
same,Kd,HLA-B*40:01; [7],≥ 20000 nM
same,Kd,HLA-A*11:01; [7],≥ 20000 nM
LQRKHGGSL,Kd,HLA-B*08:01 [4]; [9],57.4 nM
same,Kd,HLA-B*15:01 [5]; [9],26.2 nM
same,Kd,HLA-B*07:02 [6]; [9],58.2 nM
HPGFTVIALF,Kd,HLA-B*35:01; [10],101 nM
same,Kd,HLA-B*53:01; [10],87.9 nM
LMLVTPSMAM,Kd,HLA-B*15:01 [5]; [10],7.08 nM
ISKNAFSCM,Kd,HLA-B*15:01 [5]; [11],78.1 nM
LTFKACDHI,Kd,HLA-A*32:01; [11],18800 nM
same,Kd,HLA-B*08:01 [4]; [11],838 nM
same,Kd,HLA-A*30:01,81.5 nM
same,Kd,HLA-B*15:03,845 nM
same,Kd,HLA-B*15:01 [5]; [11],973 nM
LPPEKCDTLL,Kd,HLA-B*35:01; [12],5980 nM
same,Kd,HLA-B*08:01 [4]; [12],707 nM
WSFLEDRVY,Kd,HLA-B*27:05; [13],≥ 20000 nM
same,Kd,HLA-A*69:01; [13],≥ 20000 nM
same,Kd,HLA-A*01:01; [13],2270 nM
same,Kd,HLA-A*24:03; [13],≥ 20000 nM
same,Kd,HLA-A*02:01; [13],≥ 20000 nM
same,Kd,HLA-B*58:01; [13],484 nM
same,Kd,HLA-A*03:01; [13],≥ 20000 nM
same,Kd,HLA-A*31:01; [13],≥ 20000 nM
same,Kd,HLA-B*44:02; [13],≥ 20000 nM
same,Kd,HLA-B*08:01 [1]; [13],≥ 20000 nM
same,Kd,HLA-B*15:01 [2]; [13],42 nM
same,Kd,HLA-A*26:01; [13],≥ 20000 nM
same,Kd,HLA-B*07:02 [3]; [13],≥ 20000 nM
same,Kd,HLA-B*40:01; [13],≥ 20000 nM
same,Kd,HLA-A*11:01; [13],≥ 20000 nM
ILAAVSVSPL,Kd,HLA-B*15:01 [5]; source organism: Dengue virus 2 Jamaica/1409/1983,28.9 nM
same,Kd,HLA-A*02:03,13 nM
RAKGSRAIWY,Kd,HLA-A*30:02,77 nM
same,Kd,HLA-B*15:01 [5]; [9],36.1 nM
VEGEGLHKL,Kd,HLA-B*44:02; source organism: Dengue virus 1 Singapore/S275/1990,≥ 20000 nM
KLVMAFIAF,Kd,HLA-A*32:01; [10],1180 nM
same,Kd,HLA-A*23:01,4820 nM
same,Kd,HLA-B*15:01 [5]; [10],1.39 nM
IKYMIGNFM,Kd,HLA-B*15:03,2.15 nM
GPLRMVLAF,Kd,HLA-B*35:01; [9],1230 nM
same,Kd,HLA-B*53:01; [9],122 nM
same,Kd,HLA-B*07:02 [6]; [9],5.58 nM
QPFLALGFFL,Kd,HLA-B*35:01; [12],200 nM
same,Kd,HLA-B*51:01,≥ 69600 nM
same,Kd,HLA-B*07:02 [6]; [12],577 nM
ITKINTHLA,Kd,HLA-A*32:01; [11],≥ 77800 nM
same,Kd,HLA-B*08:01 [4]; [11],≥ 22100 nM
same,Kd,HLA-A*30:01,14.9 nM
same,Kd,HLA-B*15:03,≥ 51400 nM
same,Kd,HLA-B*15:01 [5]; [11],2890 nM
GSDKQVVGQ,Kd,HLA-B*27:05; [14],≥ 20000 nM
same,Kd,HLA-A*69:01; [14],≥ 20000 nM
same,Kd,HLA-A*01:01; [14],≥ 20000 nM
same,Kd,HLA-A*24:03; [14],≥ 20000 nM
same,Kd,HLA-A*02:01; [14],≥ 20000 nM
same,Kd,HLA-B*58:01; [14],≥ 20000 nM
same,Kd,HLA-A*03:01; [14],≥ 20000 nM
same,Kd,HLA-A*31:01; [14],≥ 20000 nM
same,Kd,HLA-B*44:02; [14],≥ 20000 nM
same,Kd,HLA-B*08:01 [1]; [14],≥ 20000 nM
same,Kd,HLA-B*15:01 [2]; [14],≥ 20000 nM
same,Kd,HLA-A*26:01; [14],≥ 20000 nM
same,Kd,HLA-B*07:02 [3]; [14],≥ 20000 nM
same,Kd,HLA-B*40:01; [14],≥ 20000 nM
same,Kd,HLA-A*11:01; [14],≥ 20000 nM
